Laboratory results as given in patent EP2778173A1 (dated 2014).

Target: T1, recombinant EF produced in our laboratory (Bacillus anthracis, UniProt P40136 34-800)
T1 sequence: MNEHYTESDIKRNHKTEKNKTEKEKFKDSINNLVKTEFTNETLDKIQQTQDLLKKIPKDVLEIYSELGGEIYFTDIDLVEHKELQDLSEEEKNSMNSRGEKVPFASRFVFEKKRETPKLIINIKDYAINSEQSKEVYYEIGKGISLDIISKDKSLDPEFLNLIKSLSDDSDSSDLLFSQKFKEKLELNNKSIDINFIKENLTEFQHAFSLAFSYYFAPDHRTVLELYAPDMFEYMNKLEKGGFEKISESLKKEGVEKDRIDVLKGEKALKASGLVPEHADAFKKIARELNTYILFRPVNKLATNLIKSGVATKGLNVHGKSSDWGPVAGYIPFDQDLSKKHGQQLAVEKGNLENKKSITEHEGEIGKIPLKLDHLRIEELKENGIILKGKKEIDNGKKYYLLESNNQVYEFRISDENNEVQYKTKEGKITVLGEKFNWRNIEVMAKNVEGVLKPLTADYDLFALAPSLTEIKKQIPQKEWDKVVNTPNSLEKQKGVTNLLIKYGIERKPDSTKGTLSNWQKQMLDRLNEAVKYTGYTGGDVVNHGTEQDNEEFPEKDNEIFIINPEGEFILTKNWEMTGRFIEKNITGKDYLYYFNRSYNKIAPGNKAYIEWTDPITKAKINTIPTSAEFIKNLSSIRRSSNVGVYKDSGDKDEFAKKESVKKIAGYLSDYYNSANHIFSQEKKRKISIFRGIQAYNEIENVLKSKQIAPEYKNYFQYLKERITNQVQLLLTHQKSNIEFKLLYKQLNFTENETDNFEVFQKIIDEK
Assay: SPR (Biacore X), scFv 2LF on CM5 chip, Native EF in solution; Table 2

B1: scFv 2LF (scFv, V domains shown)
VH: QVQLVESGGGVVQPGRSLRLSCAASGFAFDSTAMHWVRQAPGKGLEWVAVISTGGSTYYADSVKGRFTISRDNSNNTLYLQMNSLRAEDTAVYYCAKAVRGYIGSRGPLDVWGQGTMVTVSS
VL: DIQMTQSPSSVSASVGDRVTITCRASQGISSWLAWYQQKPGKAPKLLIYKASSLQSGVPSRFSGSGSGTDFTLTISSLQPEDFATYYCQQYSTSPITFGGGTKVEIK
koff: 0.00051 s⁻¹
